Data reported in patent US20200055896A1, “SUBSTRATES RECOGNIZED BY FIBROBLAST ACTIVATION PROTEIN (FAP) AND METHODS OF USING THE SAME” (GENENTECH, INC., priority 2017, published 2020).
No end group written: not given here.

Key:
Type in all cases: biochemical
recombinant mouse FAP = target: T1, recombinant mouse FAP (Mus musculus, UniProt P97321); assay: FRET-quench assay: probe cleavage by recombinant mouse FAP; settings: 1 nM recombinant mouse FAP; 3 μM peptide
T1 construct: (residues L26-D760 and L26-D761, respectively); octa-His (N); made in house; host or cells: transiently transfected CHO cells (conditioned media)
T1 sequence (P97321 26-761): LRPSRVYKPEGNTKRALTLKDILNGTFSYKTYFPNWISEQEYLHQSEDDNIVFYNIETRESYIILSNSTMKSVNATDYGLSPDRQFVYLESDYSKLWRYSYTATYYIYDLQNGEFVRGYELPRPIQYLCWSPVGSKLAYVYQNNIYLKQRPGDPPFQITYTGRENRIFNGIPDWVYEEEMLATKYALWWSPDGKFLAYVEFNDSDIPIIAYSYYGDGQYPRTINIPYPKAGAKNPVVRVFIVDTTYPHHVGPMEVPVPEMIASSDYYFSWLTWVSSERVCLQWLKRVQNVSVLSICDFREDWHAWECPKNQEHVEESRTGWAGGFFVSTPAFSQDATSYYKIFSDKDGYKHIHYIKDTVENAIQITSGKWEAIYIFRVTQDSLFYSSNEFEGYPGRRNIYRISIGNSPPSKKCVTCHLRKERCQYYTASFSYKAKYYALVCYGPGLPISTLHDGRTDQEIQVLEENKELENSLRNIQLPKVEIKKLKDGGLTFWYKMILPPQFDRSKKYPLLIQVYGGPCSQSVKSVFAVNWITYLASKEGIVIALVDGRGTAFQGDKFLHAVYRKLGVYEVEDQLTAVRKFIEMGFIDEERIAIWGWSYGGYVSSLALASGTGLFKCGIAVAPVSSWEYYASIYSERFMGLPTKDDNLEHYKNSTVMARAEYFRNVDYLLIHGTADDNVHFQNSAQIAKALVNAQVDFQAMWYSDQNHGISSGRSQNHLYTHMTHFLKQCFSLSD
Text: (§1) Human prolyl oligopeptidase (PREP, 4308-SE), DPPIV (1180-SE), DPP9 (5419-SE), and DPPII/DPP7 (3438-SE) proteins were purchased from R&D Systems. Human DPP8 (BML-SE527) protein was purchased from Enzo Life Sciences. N-terminal octa-His-tagged human and mouse FAP proteins containing the extracellular domain (residues L26-D760 and L26-D761, respectively) were purified from the conditioned media of transiently-transfected CHO cells, by immobilized metal affinity chromatography (IMAC), followed by size exclusion chromatography (SEC).
(§2) Peptides of the region flanking the C-terminal human FGF21 cleavage site (VGPSQG) or a variant with D-alanine at P2 (VaPSQG) were synthesized (Anaspec, Inc.), containing an amine-terminal donor (HyLite Fluor 488 or Cy5.5 for aP NIRF) and a dark quencher-acceptor (QXL 520 or QSY21 for aP NIRF) conjugated to a supplementary C-terminal lysine. ANPFAP (Bioconjugate Chem 23:1704-11) and aP NIRF were synthesized by CPC Scientific (Sunnyvale, Calif.). Assays were conducted at 37° C. in 50 mM HEPES (pH 7.2), 150 mM NaCl, 1 mM EDTA, 0.1 mg/ml BSA. The excitation/emission wavelengths of cleaved peptide are 490/520 nm or 675/695 nm for ANPFAP and aP NIRF. Fluorescence was monitored on a Tecan M1000 Pro plate reader in kinetic mode. […]

[1] = system: human S9 and S28 peptidases; assay: aP cleavage by a panel of recombinant human prolyl peptidases; settings: each recombinant peptidase at 2.5 μg/ml
Text: as §1, §2

serum FAP = target: T2, serum FAP (Homo sapiens, UniProt Q12884); assay: aP probe fluorescence assay of FAP activity in human serum versus FAP ELISA
T2 construct: the extracellular domain encoding the active enzyme can be shed from the cell surface; tissue Discovery Life Sciences, Inc. (part of the samples); host or cells: human serum (healthy donors, cirrhosis patients)
T2 sequence (Q12884 24-760 limits assumed): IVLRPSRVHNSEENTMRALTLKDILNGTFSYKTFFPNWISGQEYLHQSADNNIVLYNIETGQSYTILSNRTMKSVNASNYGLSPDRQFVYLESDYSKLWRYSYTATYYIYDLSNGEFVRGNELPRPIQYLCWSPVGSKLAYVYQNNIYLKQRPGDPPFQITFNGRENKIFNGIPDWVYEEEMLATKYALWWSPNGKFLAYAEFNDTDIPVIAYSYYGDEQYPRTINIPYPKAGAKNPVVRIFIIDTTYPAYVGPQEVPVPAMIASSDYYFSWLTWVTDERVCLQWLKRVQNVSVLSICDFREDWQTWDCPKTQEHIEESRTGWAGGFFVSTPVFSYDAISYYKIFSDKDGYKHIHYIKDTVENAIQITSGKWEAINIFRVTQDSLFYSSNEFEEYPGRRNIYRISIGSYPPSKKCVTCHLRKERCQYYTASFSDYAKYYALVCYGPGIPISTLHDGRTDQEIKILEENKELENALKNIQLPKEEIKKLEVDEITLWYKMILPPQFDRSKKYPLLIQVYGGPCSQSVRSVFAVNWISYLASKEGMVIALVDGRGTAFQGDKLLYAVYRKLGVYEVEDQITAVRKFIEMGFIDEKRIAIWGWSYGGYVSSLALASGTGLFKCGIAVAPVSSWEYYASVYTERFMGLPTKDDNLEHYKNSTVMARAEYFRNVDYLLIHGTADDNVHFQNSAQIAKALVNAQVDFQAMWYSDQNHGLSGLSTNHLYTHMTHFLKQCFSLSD
Protocol: Mouse plasma samples were prepared in K3-EDTA MiniCollect tubes (Greiner Bio-One, 450475) and frozen immediately at −80° C. prior to analysis. Human serum samples were obtained from healthy donors or purchased from Discovery Life Sciences, Inc. (Los Osos, Calif.).
Serum FAP concentration was measured using the human FAP DuoSet ELISA kit (R&D Systems, DY3715), according to the manufacturer's protocol.
Peptides of the region flanking the C-terminal human FGF21 cleavage site (VGPSQG) or a variant with D-alanine at P2 (VaPSQG) were synthesized (Anaspec, Inc.), containing an amine-terminal donor (HyLite Fluor 488 or Cy5.5 for aP NIRF) and a dark quencher-acceptor (QXL 520 or QSY21 for aP NIRF) conjugated to a supplementary C-terminal lysine. ANPFAP (Bioconjugate Chem 23:1704-11) and aP NIRF were synthesized by CPC Scientific (Sunnyvale, Calif.). Assays were conducted at 37° C. in 50 mM HEPES (pH 7.2), 150 mM NaCl, 1 mM EDTA, 0.1 mg/ml BSA. The excitation/emission wavelengths of cleaved peptide are 490/520 nm or 675/695 nm for ANPFAP and aP NIRF. Fluorescence was monitored on a Tecan M1000 Pro plate reader in kinetic mode. Except where indicated otherwise, measurements of serum or plasma FAP activity were performed with the peptide substrate concentration at 6 μM and a 10-fold dilution of serum or plasma in assay buffer.

Row | Substance | cleavage by recombinant mouse FAP (recombinant mouse FAP) | cleavage by human S9 and S28 peptidases [1] | lowest FAP level detected with the activity assay (serum FAP) [ng/mL]
1 | GP probe: human FGF21 cleavage-site peptide VGPSQG with amine-terminal HyLite Fluor 488 donor and QXL 520 quencher on supplementary C-terminal lysine ({HyLite Fluor 488}-VGPSQGK(QXL 520)) | cleaved | – | –
2 | aP probe: FGF21-based peptide VaPSQG (D-alanine at P2) with HyLite Fluor 488 donor and QXL 520 quencher | – | did not exhibit an ability to cleave | 63
